From patent US20250129167A1 (University of Texas, published 2025) come the findings set out here.

Test [1] addresses PD-L1 on CHO-PD-L1 cells (Promega blockade system) (UniProt Q9NZQ7 19-290, limits assumed). Kind of test: cell-based or functional assay.
The target in a further test is T1, Cyno PD-L1-Fc (cyno, UniProt G7PSE7 19-238).
T1 construct: not shown: The Fc part of the fusion and any linker to it
Put plainly: ForteBio Octet, IgG on sensor, Fc-fusion antigen in solution (avid). As to the method:
(§1) ForteBio KD measurements—ForteBio affinity measurements were performed on an Octet RED384 generally as previously described (sec, e.g., Estep et al., 2013). Briefly, ForteBio affinity measurements were performed by loading IgGs on-line onto AHQ sensors. Sensors were equilibrated off-line in assay buffer for 30 min and then monitored on-line for 60 seconds for baseline establishment. Sensors with loaded IgGs were exposed to 100 nM antigen for 3 minutes, and afterwards were transferred to assay buffer for 3 min for off-rate measurement. For monovalent affinity assessment Fabs were used instead of IgGs. For this assessment the unbiotinylated Fc fusion antigen was loaded on-line onto the AHQ sensors. Sensors were equilibrated off-line in assay buffer for 30 min and then monitored on-line for 60 seconds for baseline establishment. Sensors with loaded antigen were exposed to 100 nM Fab for 3 minutes, and afterwards they were transferred to assay buffer for 3 min for off-rate measurement. All kinetics were analyzed using the 1:1 binding model.
On the technique in general: BLI is a label-free optical method that tracks binding on a fibre tip over time.

The target in test [2] is T2, Mouse PD-L2-Fc (mouse, UniProt Q9WUL5 20-219, limits assumed).
T2 construct: also called murine PD-L2; not shown: Fc part of the fusion
T2 sequence (looked up): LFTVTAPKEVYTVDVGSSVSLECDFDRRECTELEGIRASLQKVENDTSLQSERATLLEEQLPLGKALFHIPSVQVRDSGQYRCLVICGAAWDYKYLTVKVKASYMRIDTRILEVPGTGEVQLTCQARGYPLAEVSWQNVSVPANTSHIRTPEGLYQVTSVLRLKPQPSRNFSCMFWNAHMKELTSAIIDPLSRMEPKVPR
Described as above. As for the experimental part:
as §1

The target in test [3] is T3, Human PD-L2-Fc (human, UniProt Q9BQ51 20-220).
T3 construct: not shown: Fc part of the fusion
T3 sequence: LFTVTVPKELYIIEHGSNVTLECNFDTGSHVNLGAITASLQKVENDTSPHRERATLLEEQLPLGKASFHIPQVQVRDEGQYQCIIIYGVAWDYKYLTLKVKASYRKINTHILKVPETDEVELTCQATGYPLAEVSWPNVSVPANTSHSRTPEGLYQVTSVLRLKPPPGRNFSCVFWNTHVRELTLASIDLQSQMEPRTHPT
Described as above. As to the method:
as §1

In test [4] the target is T4, Mouse PD-L1-Fc (mouse, UniProt Q9EP73 19-238, limits assumed).
T4 construct: also called murine PD-L1; not shown: Fc part of the fusion
The test is described as above. As for the experimental part: as §1

For test [5], the target named is T5, Human PD-L1-Fc (human, UniProt Q9NZQ7 19-238).
T5 construct: not shown: Fc part of the fusion
Described as above. As to the method:
as §1

Another test concerns the target T6, Cyno PD-L2-Fc (cyno, UniProt A0A2K5U5Z4 20-219).
T6 construct: not shown: Fc part of the fusion
T6 sequence: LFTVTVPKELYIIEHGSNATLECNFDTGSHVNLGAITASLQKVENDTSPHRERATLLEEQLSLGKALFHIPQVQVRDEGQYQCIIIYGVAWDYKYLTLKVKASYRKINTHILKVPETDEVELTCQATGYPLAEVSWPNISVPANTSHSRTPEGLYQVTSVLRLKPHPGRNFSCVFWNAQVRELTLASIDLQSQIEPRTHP
Described as above. As to the method: as §1

Test [6] has as its target T3, Human PD-L2-Fc. Put plainly: ForteBio Octet, Fc-fusion antigen on sensor, Fab in solution (monovalent). As to the method:
as §1

Test [7] addresses T5, Human PD-L1-Fc. The test is described as above. As for the experimental part: as §1
In test [8] the target is T2, Mouse PD-L2-Fc. Kind of test: column 'Species cross-reactivity'.
The target of test [9] is T7, PD-L2 on CHO-PD-L2 cells (Promega blockade system) (UniProt Q9BQ51 20-273, limits assumed).
T7 sequence (looked up): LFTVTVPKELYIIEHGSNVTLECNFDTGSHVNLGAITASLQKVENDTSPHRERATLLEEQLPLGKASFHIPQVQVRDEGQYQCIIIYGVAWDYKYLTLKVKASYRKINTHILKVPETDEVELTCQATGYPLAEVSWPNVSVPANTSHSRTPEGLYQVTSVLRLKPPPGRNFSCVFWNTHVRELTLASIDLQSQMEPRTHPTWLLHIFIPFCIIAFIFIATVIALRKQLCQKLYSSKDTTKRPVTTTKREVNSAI
Put plainly: cell-based or functional assay.

Test [10] concerns the target PD-L1 on CHO-PD-L1/PDL2 cells (Promega blockade system). Put plainly: cell-based or functional assay.
Test [11] addresses PD-L2 on CHO-PD-L1/PDL2 cells (Promega blockade system). Kind of test: cell-based or functional assay.
Test [12] concerns the target T4, Mouse PD-L1-Fc. Put plainly: column 'Species cross-reactivity'.

T4 sequence (Q9EP73 19-238 limits assumed): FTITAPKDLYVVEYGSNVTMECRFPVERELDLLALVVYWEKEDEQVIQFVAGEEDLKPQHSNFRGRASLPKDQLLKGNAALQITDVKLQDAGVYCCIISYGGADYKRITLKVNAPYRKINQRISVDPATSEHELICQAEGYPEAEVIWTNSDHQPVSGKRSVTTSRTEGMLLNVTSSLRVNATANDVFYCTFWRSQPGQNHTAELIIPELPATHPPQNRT
T1 sequence (G7PSE7 entry or part of it limits assumed): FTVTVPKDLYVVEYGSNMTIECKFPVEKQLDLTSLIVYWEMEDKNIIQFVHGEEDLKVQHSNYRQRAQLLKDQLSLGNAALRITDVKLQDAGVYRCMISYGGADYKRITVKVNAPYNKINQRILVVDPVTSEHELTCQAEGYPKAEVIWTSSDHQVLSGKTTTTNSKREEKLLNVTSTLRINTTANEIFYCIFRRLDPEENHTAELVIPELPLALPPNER

B1: ADI-20230 (antibody, V domains shown)
VH: QVQLVQSGAEVKKPGSSVKVSCKASGGTFSSYFISWVRQAPGQGLEWMGQIIPNVGTANYAQKFQGRVTITADESTSTAYMELSSLRSEDTAVYYCARDQTAKAHLVWGQGTLVTVSS
VL: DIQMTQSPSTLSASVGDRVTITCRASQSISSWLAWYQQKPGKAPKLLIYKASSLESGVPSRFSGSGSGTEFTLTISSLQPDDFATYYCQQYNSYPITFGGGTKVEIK
notes: Vk1-05 common light chain; also called PD-L1-C2-1; cLC-PDL1 (22726)
As a reminder, the Kd is the constant that tells how readily two partners part at equilibrium. Read a high Kd as weaker binding. For the molecule B1, the “EC50 (read off the curve); luciferase fold induction, Promega CHO-PD-L1 / PD-1 Jurkat assay” value in [1] was about 0.1 nM. The Kd with Cyno PD-L1-Fc stood at 0.264 nM; with Human PD-L1-Fc [5], 0.205 nM. Further, the binding result with Mouse PD-L2-Fc [2], in the test with Human PD-L2-Fc [3], with Mouse PD-L1-Fc [4] and with Cyno PD-L2-Fc was “no binding (tested: 100 nM)” in each case.

B2: ADI-20230 Fab (Fab, V domains shown)
VH: QVQLVQSGAEVKKPGSSVKVSCKASGGTFSSYFISWVRQAPGQGLEWMGQIIPNVGTANYAQKFQGRVTITADESTSTAYMELSSLRSEDTAVYYCARDQTAKAHLVWGQGTLVTVSS
VL: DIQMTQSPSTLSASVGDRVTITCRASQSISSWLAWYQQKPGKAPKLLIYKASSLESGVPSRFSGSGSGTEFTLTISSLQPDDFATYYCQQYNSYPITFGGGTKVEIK
notes: also called cLC-PDL1 (22726) Fab
B2: the binding result with Human PD-L2-Fc [6] is listed as “no binding (tested: 100 nM)”. In the test with Human PD-L1-Fc [7], this molecule yielded a Kd of 0.823 nM.

B3: ADI-20241 (antibody, V domains shown)
VH: QVQLVQSGAEVKKPGSSVKVSCKASGGTFSEYAIVWVRQAPGQGLEWMGGIIPLFGTANYAQKFQGRVTITADESTSTAYMELSSLRSEDTAVYYCARPLDRRIVAFDIWGQGTMVTVSS
VL: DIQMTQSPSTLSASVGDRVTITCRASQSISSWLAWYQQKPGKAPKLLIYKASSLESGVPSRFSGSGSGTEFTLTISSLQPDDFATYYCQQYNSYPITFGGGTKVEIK
notes: Vk1-05 common light chain; also called PD-L2-C2-1; cLC-PDL2 (22726)
On to B3, for which the binding result in the test with Mouse PD-L2-Fc [8] is recorded as “binds”; with Cyno PD-L1-Fc, “no binding (tested: 100 nM)”; with Mouse PD-L1-Fc [4] it was “no binding (tested: 100 nM)”; with Human PD-L1-Fc [5], “no binding (tested: 100 nM)”. In addition, the Kd is 0.487 nM with Human PD-L2-Fc [3] and 0.253 nM in the test with Cyno PD-L2-Fc. Besides, the “EC50 (read off the curve); luciferase fold induction, Promega CHO-PD-L2 / PD-1 Jurkat assay [Cont'd]” value in test [9] was about 0.2 nM.

B4: DiPDL candidate C2 (bispecific antibody, V domains shown)
VH 1: QVQLVQSGAEVKKPGSSVKVSCKASGGTFSSYFISWVRQAPGQGLEWMGQIIPNVGTANYAQKFQGRVTITADESTSTAYMELSSLRSEDTAVYYCARDQTAKAHLVWGQGTLVTVSS
VH 2: QVQLVQSGAEVKKPGSSVKVSCKASGGTFSEYAIVWVRQAPGQGLEWMGGIIPLFGTANYAQKFQGRVTITADESTSTAYMELSSLRSEDTAVYYCARPLDRRIVAFDIWGQGTMVTVSS
VL: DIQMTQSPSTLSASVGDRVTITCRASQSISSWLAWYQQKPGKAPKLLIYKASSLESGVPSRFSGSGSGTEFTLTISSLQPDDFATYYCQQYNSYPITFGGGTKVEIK
For B4, the “EC50 (read off the curve); luciferase fold induction, Promega CHO-PD-L1/PD-L2 / PD-1 Jurkat assay, combined blockade of PD-L1 and PD-L2 [Cont'd]” value in test [10] and in [11] was about 0.6 nM throughout.

B5: ADI-20241 Fab (Fab, V domains shown)
VH: QVQLVQSGAEVKKPGSSVKVSCKASGGTFSEYAIVWVRQAPGQGLEWMGGIIPLFGTANYAQKFQGRVTITADESTSTAYMELSSLRSEDTAVYYCARPLDRRIVAFDIWGQGTMVTVSS
VL: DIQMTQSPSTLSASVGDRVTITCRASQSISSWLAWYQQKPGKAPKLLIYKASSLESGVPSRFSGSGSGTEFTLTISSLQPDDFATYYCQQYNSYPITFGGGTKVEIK
notes: also called cLC-PDL2 (22726) Fab
For B5, binding in the test with Human PD-L2-Fc [6] was characterised by a dissociation constant (Kd) of 1.99 nM. Besides, the binding result in the test with Human PD-L1-Fc [7] is recorded as “no binding (tested: 100 nM)”.

B6: ADI-20236 (antibody, V domains shown)
VH: QVQLVQSGAEVKKPGSSVKVSCKASGGTFSSHAISWVRQAPGQGLEWMGGIIPIFGWALYAQKFQGRVTITADESTSTAYMELSSLRSEDTAVYYCARPGDHRASHFDYWGQGTLVTVSS
VL: DIQMTQSPSSVSASVGDRVTITCRASQGISSWLAWYQQKPGKAPKLLIYAASSLQSGVPSRFSGSGSGTDFTLTISSLQPEDFATYYCQQANSFPITFGGGTKVEIK
notes: Vk1-12 common light chain; also called PD-L2-C1-1; cLC-PDL2 (22731)
For B6, the binding result is “binds” in the test with Mouse PD-L2-Fc [8], “no binding (tested: 100 nM)” in the test with Cyno PD-L1-Fc, “no binding (tested: 100 nM)” with Mouse PD-L1-Fc [4] and “no binding (tested: 100 nM)” with Human PD-L1-Fc [5]. Moreover, the results for the Kd with Human PD-L2-Fc [3] and with Cyno PD-L2-Fc were 0.416 nM and 0.64 nM, respectively. Besides, the “EC50 (read off the curve); luciferase fold induction, Promega CHO-PD-L2 / PD-1 Jurkat assay [Cont'd]” value in test [9] is about 0.2 nM.

B7: ADI-20225 (antibody, V domains shown)
VH: QVQLVQSGAEVKKPGASVKVSCKASGGTFRSYAIQWVRQAPGQGLEWMGWIIPGFGTANYAQKFQGRVTITADESTSTAYMELSSLRSEDTAVYYCARELSHGGLSYWGQGTLVTVSS
VL: DIQMTQSPSSVSASVGDRVTITCRASQGISSWLAWYQQKPGKAPKLLIYAASSLQSGVPSRFSGSGSGTDFTLTISSLQPEDFATYYCQQANSFPITFGGGTKVEIK
notes: Vk1-12 common light chain; also called PD-L1-C1-1; cLC-PDL1 (22731)
Turning to B7, the binding result with Mouse PD-L1-Fc [12] is “binds”; in the test with Mouse PD-L2-Fc [2], “no binding (tested: 100 nM)”; with Human PD-L2-Fc [3] it was “no binding (tested: 100 nM)”; with Cyno PD-L2-Fc, “no binding (tested: 100 nM)”. Also, the “EC50 (read off the curve); luciferase fold induction, Promega CHO-PD-L1 / PD-1 Jurkat assay” value in [1] is about 0.1 nM. Besides, the Kd in the test with Cyno PD-L1-Fc came out at 0.237 nM; with Human PD-L1-Fc [5] it was 0.223 nM.

B8: ADI-20236 Fab (Fab, V domains shown)
VH: QVQLVQSGAEVKKPGSSVKVSCKASGGTFSSHAISWVRQAPGQGLEWMGGIIPIFGWALYAQKFQGRVTITADESTSTAYMELSSLRSEDTAVYYCARPGDHRASHFDYWGQGTLVTVSS
VL: DIQMTQSPSSVSASVGDRVTITCRASQGISSWLAWYQQKPGKAPKLLIYAASSLQSGVPSRFSGSGSGTDFTLTISSLQPEDFATYYCQQANSFPITFGGGTKVEIK
notes: also called cLC-PDL2 (22731) Fab
B8 yielded a Kd in the test with Human PD-L2-Fc [6] of 0.541 nM. For the same molecule, the binding result with Human PD-L1-Fc [7] was “no binding (tested: 100 nM)”.

B9: ADI-20225 Fab (Fab, V domains shown)
VH: QVQLVQSGAEVKKPGASVKVSCKASGGTFRSYAIQWVRQAPGQGLEWMGWIIPGFGTANYAQKFQGRVTITADESTSTAYMELSSLRSEDTAVYYCARELSHGGLSYWGQGTLVTVSS
VL: DIQMTQSPSSVSASVGDRVTITCRASQGISSWLAWYQQKPGKAPKLLIYAASSLQSGVPSRFSGSGSGTDFTLTISSLQPEDFATYYCQQANSFPITFGGGTKVEIK
notes: also called cLC-PDL1 (22731) Fab
Regarding B9, in the test with Human PD-L2-Fc [6], the binding result is on record as “no binding (tested: 100 nM)”. In the test with Human PD-L1-Fc [7], this molecule gave a Kd of 0.833 nM.

B10: DiPDL candidate C1 (bispecific antibody, V domains shown)
VH 1: QVQLVQSGAEVKKPGASVKVSCKASGGTFRSYAIQWVRQAPGQGLEWMGWIIPGFGTANYAQKFQGRVTITADESTSTAYMELSSLRSEDTAVYYCARELSHGGLSYWGQGTLVTVSS
VH 2: QVQLVQSGAEVKKPGSSVKVSCKASGGTFSSHAISWVRQAPGQGLEWMGGIIPIFGWALYAQKFQGRVTITADESTSTAYMELSSLRSEDTAVYYCARPGDHRASHFDYWGQGTLVTVSS
VL: DIQMTQSPSSVSASVGDRVTITCRASQGISSWLAWYQQKPGKAPKLLIYAASSLQSGVPSRFSGSGSGTDFTLTISSLQPEDFATYYCQQANSFPITFGGGTKVEIK
As for B10, the “EC50 (read off the curve); luciferase fold induction, Promega CHO-PD-L1/PD-L2 / PD-1 Jurkat assay, combined blockade of PD-L1 and PD-L2 [Cont'd]” value in [10] and in test [11] was about 0.2 nM each time.
